B1: KCNG1 (parent)
chain: LFVTVTAVNLSVSTLPSLREEEEQ
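Further: lentivirally expressed fusions sorted by FACS into six bins by GFP to DsRed ratio, PSI derived from sequencing read proportions per bin multiplied by bin number.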

In this series the parent is B1. As to the kind of experiment: protein stability index of a GFP-peptide fusion (GPS, HEK-293T) (PSI 1-6); higher = more stable. Conditions: c terminus: a fixed tail appended.
Regarding LFVTVEAVNLSVSTLPSLREEEEQ, the protein stability index amounted to 1.79.

For LFVTVGAVNLSVSTLPSLREEEEQ, the protein stability index is 1.3.

On to LFVTVSAVNLSVSTLPSLREEEEQ, for which the protein stability index was 2.27.

LFVTVDAVNLSVSTLPSLREEEEQ: the protein stability index amounted to 3.21.

Regarding LFVTVHAVNLSVSTLPSLREEEEQ, the protein stability index was 1.85.

As to LFVTVAAVNLSVSTLPSLREEEEQ, the protein stability index was determined as 1.69.

As for LFVTVNAVNLSVSTLPSLREEEEQ, the protein stability index came to 2.29.

LFVTVRAVNLSVSTLPSLREEEEQ: the protein stability index amounted to 1.64.

As for LFVTVPAVNLSVSTLPSLREEEEQ, the protein stability index stood at 3.96.

Consider LFVTVLAVNLSVSTLPSLREEEEQ, for which the protein stability index came to 1.25.

In the case of LFVTVTAVNLSTSTLPSLREEEEQ, the protein stability index is 2.05.

Turning to LFVTVTAVNLSFSTLPSLREEEEQ, the protein stability index was found to be 2.17.

For the variant LFVTVTAVNLSKSTLPSLREEEEQ, the protein stability index came out at 2.44.

Consider LFVTVTAVNLSCSTLPSLREEEEQ, for which the protein stability index is 2.79.

Turning to LFVTVTAVNLSQSTLPSLREEEEQ, the protein stability index was 1.4.

Consider LFVTVTAVNLSASTLPSLREEEEQ, for which the protein stability index amounted to 2.71.

In the case of LFVTVTAVNLSRSTLPSLREEEEQ, the protein stability index was found to be 1.89.

Turning to LFVTVTAVNLSPSTLPSLREEEEQ, the protein stability index is 1.6.

On to LFVTVTAVNLSGSTLPSLREEEEQ, for which the protein stability index worked out at 1.45.

Consider LFVTVTAVNLSWSTLPSLREEEEQ, for which the protein stability index came out at 2.35.

With LFVTVTAVNLSHSTLPSLREEEEQ, the protein stability index was 1.53.

Regarding LFVTVTAVNLSDSTLPSLREEEEQ, the protein stability index came out at 1.71.

Regarding LFVTVTAVNLSESTLPSLREEEEQ, the protein stability index was 2.19.

On to LFVTVTAVNLSSSTLPSLREEEEQ, for which the protein stability index was 1.85.

As to LFVTVTAVNLSMSTLPSLREEEEQ, the protein stability index worked out at 1.47.

For the variant LFVTVTAVNLSLSTLPSLREEEEQ, the protein stability index was determined as 3.1.

In the case of LFVTVTAVHLSVSTLPSLREEEEQ, the protein stability index stood at 3.18.

Regarding LFVTVTAVYLSVSTLPSLREEEEQ, the protein stability index turned out to be 2.02.

For LFVTVTAVQLSVSTLPSLREEEEQ, the protein stability index is 2.65.

Take LFVTVTAVPLSVSTLPSLREEEEQ: the protein stability index was 1.73.

Consider LFVTVTAVTLSVSTLPSLREEEEQ, for which the protein stability index stood at 3.74.

Consider LFVTVTAVDLSVSTLPSLREEEEQ, for which the protein stability index was 1.45.

Turning to LFVTTTAVNLSVSTLPSLREEEEQ, the protein stability index stood at 3.16.

For the variant LFVTYTAVNLSVSTLPSLREEEEQ, the protein stability index amounted to 2.14.

In the case of LFVTMTAVNLSVSTLPSLREEEEQ, the protein stability index amounted to 2.18.

In the case of LFVTCTAVNLSVSTLPSLREEEEQ, the protein stability index worked out at 2.1.

On to LFVTPTAVNLSVSTLPSLREEEEQ, for which the protein stability index came out at 4.91.

LFVTETAVNLSVSTLPSLREEEEQ: the protein stability index was 4.46.

Turning to LFVTSTAVNLSVSTLPSLREEEEQ, the protein stability index came to 3.5.

As to LFVTFTAVNLSVSTLPSLREEEEQ, the protein stability index was 2.68.

As to LFVTATAVNLSVSTLPSLREEEEQ, the protein stability index stood at 2.42.

Turning to LFVTNTAVNLSVSTLPSLREEEEQ, the protein stability index stood at 3.64.

For LFVTRTAVNLSVSTLPSLREEEEQ, the protein stability index was found to be 3.2.

As for LFVTQTAVNLSVSTLPSLREEEEQ, the protein stability index was 3.94.

LFVTLTAVNLSVSTLPSLREEEEQ: the protein stability index is 2.2.

With LFVTHTAVNLSVSTLPSLREEEEQ, the protein stability index stood at 3.52.

Take LFVTGTAVNLSVSTLPSLREEEEQ: the protein stability index was determined as 3.99.

For LFVTKTAVNLSVSTLPSLREEEEQ, the protein stability index amounted to 3.75.

On to LFVTWTAVNLSVSTLPSLREEEEQ, for which the protein stability index came out at 2.3.

LFVTDTAVNLSVSTLPSLREEEEQ: the protein stability index was determined as 4.51.

With LFVTITAVNLSVSTLPSLREEEEQ, the protein stability index worked out at 3.56.

As to LFVQVTAVNLSVSTLPSLREEEEQ, the protein stability index was 2.71.

In the case of LFVSVTAVNLSVSTLPSLREEEEQ, the protein stability index came to 1.49.

Turning to LFVPVTAVNLSVSTLPSLREEEEQ, the protein stability index came to 3.13.

With LFVEVTAVNLSVSTLPSLREEEEQ, the protein stability index amounted to 1.75.

On to LFVGVTAVNLSVSTLPSLREEEEQ, for which the protein stability index came out at 2.89.

With LFVHVTAVNLSVSTLPSLREEEEQ, the protein stability index stood at 1.93.

Turning to LFVYVTAVNLSVSTLPSLREEEEQ, the protein stability index came out at 3.61.

As for LFVLVTAVNLSVSTLPSLREEEEQ, the protein stability index was determined as 1.08.

Turning to LFVNVTAVNLSVSTLPSLREEEEQ, the protein stability index was found to be 2.45.

As to LFVKVTAVNLSVSTLPSLREEEEQ, the protein stability index is 1.64.

Turning to LFVDVTAVNLSVSTLPSLREEEEQ, the protein stability index was found to be 3.23.

As for LFVAVTAVNLSVSTLPSLREEEEQ, the protein stability index was 1.37.

For LFVMVTAVNLSVSTLPSLREEEEQ, the protein stability index was 3.06.

As to LFVTVTQVNLSVSTLPSLREEEEQ, the protein stability index is 2.58.

Consider LFVTVTTVNLSVSTLPSLREEEEQ, for which the protein stability index worked out at 1.34.

Consider LFVTVTGVNLSVSTLPSLREEEEQ, for which the protein stability index is 1.5.

With LFVTVTPVNLSVSTLPSLREEEEQ, the protein stability index came out at 1.8.

For the variant LFVTVTYVNLSVSTLPSLREEEEQ, the protein stability index is 3.4.

Regarding LFVTVTIVNLSVSTLPSLREEEEQ, the protein stability index was 4.2.

As for LFVTVTDVNLSVSTLPSLREEEEQ, the protein stability index worked out at 2.89.

Consider LFVTVTEVNLSVSTLPSLREEEEQ, for which the protein stability index came out at 3.03.

Take LFVTVTKVNLSVSTLPSLREEEEQ: the protein stability index worked out at 3.01.

As for LFVTVTCVNLSVSTLPSLREEEEQ, the protein stability index turned out to be 2.9.

Consider LFVTVTMVNLSVSTLPSLREEEEQ, for which the protein stability index worked out at 2.03.

In the case of LFVTVTHVNLSVSTLPSLREEEEQ, the protein stability index turned out to be 2.5.

For the variant LRVTVTAVNLSVSTLPSLREEEEQ, the protein stability index is 2.5.

As to LNVTVTAVNLSVSTLPSLREEEEQ, the protein stability index was 2.27.

Take LKVTVTAVNLSVSTLPSLREEEEQ: the protein stability index turned out to be 1.72.

Regarding LTVTVTAVNLSVSTLPSLREEEEQ, the protein stability index worked out at 1.25.

Take LQVTVTAVNLSVSTLPSLREEEEQ: the protein stability index came to 2.09.

Consider LYVTVTAVNLSVSTLPSLREEEEQ, for which the protein stability index was determined as 1.75.

As to LHVTVTAVNLSVSTLPSLREEEEQ, the protein stability index worked out at 2.19.

LCVTVTAVNLSVSTLPSLREEEEQ: the protein stability index came out at 1.67.

On to LPVTVTAVNLSVSTLPSLREEEEQ, for which the protein stability index is 4.83.

With LGVTVTAVNLSVSTLPSLREEEEQ, the protein stability index is 2.41.

Consider LDVTVTAVNLSVSTLPSLREEEEQ, for which the protein stability index amounted to 3.99.

As to LLVTVTAVNLSVSTLPSLREEEEQ, the protein stability index amounted to 1.95.

Turning to LAVTVTAVNLSVSTLPSLREEEEQ, the protein stability index was 2.27.

Regarding LMVTVTAVNLSVSTLPSLREEEEQ, the protein stability index worked out at 1.26.

Turning to LSVTVTAVNLSVSTLPSLREEEEQ, the protein stability index worked out at 1.99.

For the variant LFVTVTADNLSVSTLPSLREEEEQ, the protein stability index was 2.29.

Turning to LFVTVTANNLSVSTLPSLREEEEQ, the protein stability index was 2.49.

On to LFVTVTAPNLSVSTLPSLREEEEQ, for which the protein stability index came to 2.29.

(Values after the supplement of paper PMC10567573.)
